Patent US20260193317A1, “COMBINATION THERAPY WITH ACTRIIB RECEPTOR VARIANTS AND GLP-1 AGONISTS” (35PHARMA Inc., priority 2023, published 2026)
One block for each molecule: values may come before it.

Assays:
BMP-10 [1] = target: T1, BMP-10 (Homo sapiens, UniProt O95393); assay: Small-scale BMP-10 BMP-reporter cell-based assay, single concentration; details: […] protein, 40 ng/mL BMP-10
T1 sequence (O95393 317-424): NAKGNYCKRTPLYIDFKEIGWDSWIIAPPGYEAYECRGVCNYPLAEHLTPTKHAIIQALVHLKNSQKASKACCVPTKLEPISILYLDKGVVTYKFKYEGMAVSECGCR
Experimental: Characterization of the BMP-9 and BMP-10 inhibition potency (IC50) of the fusion proteins was performed using a second cell-based reporter assay. Human hepatic HepG2 cells were transfected with a SEAP-encoding plasmid, in which SEAP expression is under the control of the murine Id1 promoter. A stable pool was generated from this transfection. Cells were grown in EMEM, containing 10% heat-inactivated FBS and 200 μg/mL zeocin (hereafter, “HepG2 growth medium”). […] For all assays, cells were seeded in 96-well plates at a confluence of 100,000 cells per well in HepG2 growth medium. Cells were left to attach for 10 minutes at RT prior to being transferred to a 37° C. incubator (5% CO2) overnight. […] At the end of the incubation, absorbance was read at 650 nm. […]
Small-scale testing of ActRIIB-ECD fusion proteins. […] After 7 days, the supernatant was harvested, clarified, and the amount of expressed protein in each well was quantified using standard methods. The potency of each agent for inhibition of activin A, BMP-9 and BMP-10 was determined in three separate assays.
To determine potency on BMP-10, the same BMP-reporter cell line was used as described above. […] Results are expressed as a % of the signal obtained with the cytokine alone. […]

BMP-9 [2] = target: T2, BMP-9 (Homo sapiens, UniProt Q9UK05); assay: Small-scale BMP-9 ELISA with CHO supernatants; format: binding; details: BMP-9 10 ng/mL
T2 sequence (Q9UK05 320-429): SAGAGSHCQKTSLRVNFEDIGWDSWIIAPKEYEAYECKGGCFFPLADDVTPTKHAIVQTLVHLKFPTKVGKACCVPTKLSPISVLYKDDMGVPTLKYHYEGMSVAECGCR
Experimental: (§1) Small-scale testing of ActRIIB-ECD fusion proteins. Additional investigation of a series of exemplary agents was performed using proteins expressed in CHO cells. Briefly, DNA encoding the ActRIIB-ECD-Fc fusion constructs was transfected in cells seeded in 12-well plates in a final volume of 1 ml. After 7 days, the supernatant was harvested, clarified, and the amount of expressed protein in each well was quantified using standard methods. The potency of each agent for inhibition of activin A, BMP-9 and BMP-10 was determined in three separate assays.
The next day, the plate was washed three times. […] Expressed proteins in the supernatants were diluted 1 in 2 in assay diluent (0.5% BSA, 0.05% tween-20 in PBS) and 100 μl was added to the 96-well plate in technical duplicates. After a 1.5-hour incubation at RT, the plate was washed three times. […] In this assay, a loss of signal indicates less binding of the exemplary agent to BMP-9. Results are expressed as a % of the signal obtained with wild-type ActRIIB-Fc (P75).

activin A = target: T3, activin A (Homo sapiens, UniProt P08476); assay: Small-scale activin A ELISA with CHO supernatants; details: 1 μg/mL protein, 30 ng/mL activin A, loss of signal = binding
T3 sequence (P08476 311-426): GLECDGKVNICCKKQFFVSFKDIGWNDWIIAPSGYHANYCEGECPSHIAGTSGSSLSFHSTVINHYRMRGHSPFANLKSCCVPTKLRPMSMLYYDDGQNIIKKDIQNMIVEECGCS
Experimental: as §1
The next day, the plate was washed three times with buffer (Biolegend #421601). […] Expressed proteins in the supernatants described above were diluted to 2 μg/mL in assay diluent (0.5% BSA, 0.05% tween-20 in PBS), mixed 1:1 with recombinant human activin A (R&D #338-AC, 60 ng/mL, diluted in assay diluent). Complexes were immediately added to the 96-well plate in technical duplicates and incubated for 1 h at RT (concentration of expressed protein and activin A on the plate were 1 μg/mL and 30 ng/mL, respectively). […] In this assay, a loss of signal indicates binding of the exemplary agent to activin A, which prevents activin A binding to the anti-activin A antibody on the plate. Results are expressed as a % of the signal obtained with wild-type ActRIIB-Fc (P75).

BMP-10 [3] = target: T1, BMP-10; assay: BMP-10 binding by bio-layer interferometry (BLI); details: single concentration 12.5 nM BMP-10
Experimental: To determine potency on BMP-10, the same BMP-reporter cell line was used as described above. A final concentration of 2.5 nM of each expressed protein was tested in the presence of 40 ng/mL of BMP-10 (R&D #2926-BP). In this assay, a loss of signal indicates neutralization of BMP-10 by the exemplary agent. Results are expressed as a % of the signal obtained with the cytokine alone. A separate assay was used to estimate BMP-10 binding, using bio-layer interferometry (BLI) on a Gator® Plus instrument (Gator Bio, Palo Alto, USA). An anti-Human IgG Fc Gen II probe (#160024, Gator Bio) was loaded with expressed proteins in CHO supernatants, following which BMP-10 binding kinetics (single concentration, 12.5 nM) were assessed.

[4] = target: T4, recombinant human activin A (human, UniProt P08476 311-426); assay: direct ELISA, activin A coated, anti-human Fc-HRP; co-formulation with semaglutide, D 7 at room temperature
T4 construct: also called R&D #338-AC
T4 sequence (looked up): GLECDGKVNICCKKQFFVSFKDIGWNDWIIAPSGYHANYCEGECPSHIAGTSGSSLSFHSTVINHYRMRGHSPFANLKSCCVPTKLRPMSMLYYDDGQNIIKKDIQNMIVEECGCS
Experimental: (§3) In each case, the following parameters were assessed: a) monomer content (size exclusion chromatography), b) activin A and GDF-8 neutralization (cell-based assays [CBAs]), c) activin A binding (ELISA), d) GLP-1 receptor binding (ELISA).
(§4) Potency testing by ELISA. […] Blocking buffer (1% BSA, 0.05% tween-20 in PBS, 300 μL/well) was added to each well and the plate was incubated for 1 hour at RT. Starting at 2.5 μg/mL, test agents were diluted in assay diluent (1% BSA, 0.05% tween-20 in PBS, 100 μL/well) and loaded on the plate for 1 h at RT.

[5] = target: T4, recombinant human activin A; assay: direct ELISA, activin A coated, anti-human Fc-HRP; co-formulation with semaglutide, D 7 at 2-8°C
Experimental: as §3, §4

GDF-11 = GDF-11 (UniProt O95390 299-407); assay: cell-based or functional assay
Chain of GDF-11 (O95390 299-407 limits assumed): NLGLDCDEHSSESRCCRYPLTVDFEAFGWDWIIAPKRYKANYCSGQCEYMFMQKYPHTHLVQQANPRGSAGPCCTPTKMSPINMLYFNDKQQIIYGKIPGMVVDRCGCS

[6] = target: T4, recombinant human activin A; assay: cell-based or functional assay
GDF-8 = GDF-8 (UniProt O14793 267-375); assay: cell-based or functional assay
activin B = target: T5, activin B (UniProt P09529 293-407); assay: cell-based or functional assay
T5 sequence (looked up): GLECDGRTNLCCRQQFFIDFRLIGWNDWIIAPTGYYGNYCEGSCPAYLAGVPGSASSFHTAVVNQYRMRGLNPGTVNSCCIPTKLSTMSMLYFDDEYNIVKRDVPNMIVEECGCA

[7] = target: T4, recombinant human activin A; assay: direct ELISA, activin A coated, anti-human Fc-HRP; co-formulation with semaglutide, D 0
Experimental: as §3, §4

[8] = target: T4, recombinant human activin A; assay: direct ELISA, activin A coated, anti-human Fc-HRP; co-formulation with semaglutide, D 28 at 2-8°C
Experimental: as §3, §4

BMP-10 [9] = target: T6, BMP-10 (UniProt O95393 317-424); assay: cell-based or functional assay
T6 sequence (looked up): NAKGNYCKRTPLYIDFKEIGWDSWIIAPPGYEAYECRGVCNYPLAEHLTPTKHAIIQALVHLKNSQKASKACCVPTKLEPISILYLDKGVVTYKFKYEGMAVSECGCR

BMP-9 [10] = target: T7, BMP-9 (UniProt Q9UK05 320-429); assay: cell-based or functional assay
T7 sequence (looked up): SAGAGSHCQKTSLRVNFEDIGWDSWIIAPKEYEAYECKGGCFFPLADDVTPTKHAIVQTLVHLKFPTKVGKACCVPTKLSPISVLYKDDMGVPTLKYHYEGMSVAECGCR

[11] = target: T4, recombinant human activin A; assay: direct ELISA, activin A coated, anti-human Fc-HRP; co-formulation with semaglutide, D 28 at room temperature
Experimental: as §3, §4

[12] = tested on: follicle-stimulating hormone (FSH); assay: FSH production in DIO mice; format: in vivo; details: 3 weeks of treatment
Experimental: (§2) Experiments were performed to assess the effects of P1229 on body composition and metabolism in diet-induced obese (DIO) mice. DIO mice were purchased from Jackson Laboratories (#380050). Briefly, mice were fed a high-fat diet (HFD, 60% kcal from fat) from 6 weeks of age until 22 weeks of age (total of 16 weeks on the HFD). […] After 3 weeks of treatments, some animals were sacrificed and scanned by EchoMRI […] (FIGS. 11A-F), while others were sacrificed for tissue collection and RNA analysis. Animals were maintained on the HFD throughout the acclimatization and treatment periods. The murine version of bimagrumab used for these experiments comprises the heavy chain amino acid sequence of SEQ ID NO: 376 and the light chain sequence of SEQ ID NO: 377.
Follicle-stimulating hormone (FSH) is a known biomarker of in vivo target engagement for activin receptor-based traps (See Attie et al. (2013). Muscle Nerve, 47: 416-423). To further validate in vivo target engagement for exemplary agents, FSH production was evaluated in DIO mice, as described above.

[13] = tested on: diet-induced obese (DIO) mice; assay: Body composition and metabolism in diet-induced obese (DIO) mice; format: in vivo
Experimental: as §2

DIO mice = assay: Body composition in high fat diet mice, alone and in combination with incretin mimetics; format: in vivo
Experimental: Experiments were performed in vivo to investigate the potential for additive or synergistic effects between exemplary ActRIIB-ECD polypeptide constructs and incretin mimetics.

BMP-9 binding, ELISA signal relative to P75 (BMP-9 [2]): near undetectable binding to BMP-9
BMP-10 KD by bio-layer interferometry (BMP-10 [3]): higher KD (lower affinity) than P75
Molecule: P444: WT hActRIIA, 3 aa linker (GGG), IgG1 Fc; SEQ ID 173 [reference compound]
BMP-10 neutralization, signal relative to BMP-10 alone (BMP-10 [1]): less neutralization (i.e., greater signal) than P75
activin A binding, ELISA signal relative to P75 (activin A): comparable activin A binding profile to P75

ELISA potency fold-change vs P1372 alone (ref = 1) [4]: 1.4 fold
ELISA potency fold-change vs P1372 alone (ref = 1) [5]: 0.85 fold
GDF-11 IC50; TGFβ-reporter HEK293 cells (GDF-11): 0.53 nM
Activin A IC50; TGFβ-reporter HEK293 cells [6]: 0.56 nM
GDF-8 IC50; TGFβ-reporter HEK293 cells (GDF-8): 0.18 nM
Activin B IC50; TGFβ-reporter HEK293 cells (activin B): 2 nM
ELISA potency fold-change vs P1372 alone (ref = 1) [7]: 0.98 fold
ELISA potency fold-change vs P1372 alone (ref = 1) [8]: 1.3 fold
BMP-10 IC50; BMP-reporter HepG2 cells (BMP-10 [9]): > 100 nM
BMP-9 IC50; BMP-reporter HepG2 cells (BMP-9 [10]): > 1000 nM
ELISA potency fold-change vs P1372 alone (ref = 1) [11]: 0.79 fold
B1: P1372 (Fc fusion)
chain: ETRECIYYNANWELERTNQSGLERCEGEQDKRWHCYASWRNSSGTIELVKKGCWLDDFNCYDRQECVATEENPQVYFCCCEGNFCNERFTHLPEAGGPEVTYEPPPTGGGGSGGGGSGGGGTHTCPPCPAPELLGGPSVFLFPPKPKDTLYITREPEVTCVVVDVSHEDPEVKFNWYVDGVEVHNAKTKPREEQYNSTYRVVSVLTVLHQDWLNGKEYKCKVSNKALPAPIEKTISKAKGQPREPQVYTLPPSRDELTKNQVSLTCLVKGFYPSDIAVEWESNGQPENNYKTTPPVLDSDGSFFLYSKLTVDKSRWQQGNVFSCSVMHEALHNHYTQKSLSLSPG
notes: also tested in co-formulation with semaglutide, tirzepatide or retatrutide; also called ActRIIB ligand trap P1372

B2: P1307: murine version of bimagrumab, an antibody targeting ActRIIB and ActRIIA; heavy chain SEQ ID NO: 376, light chain SEQ ID NO: 377 (antibody)
heavy: MDWTWRILFLVAAATGTHAQVQLVQSGAEVKKPGASVKVSCKASGYTFTSSYINWVRQAPGQGLEWMGTINPVSGSTSYAQKFQGRVTMTRDTSISTAYMELSSLRSEDTAVYYCARGGWFDYWGQGTLVTVSSAKTTAPSVYPLAPVCGDTTGSSVTLGCLVKGYFPEPVTLTWNSGSLSSGVHTFPAVLQSDLYTLSSSVTVTSSTWPSQSITCNVAHPASSTKVDKKIEPRGPTIKPCPPCKCPAPNAAGGPSVFIFPPKIKDVLMISLSPIVTCVVVDVSEDDPDVQISWFVNNVEVHTAQTQTHREDYNSTLRVVSALPIQHQDWMSGKEFKCKVNNKDLPAPIERTISKPKGSVRAPQVYVLPPPEEEMTKKQVTLTCMVTDFMPEDIYVEWTNNGKTELNYKNTEPVLDSDGSYFMYSKLRVEKKNWVERNSYSCSVVHEGLHNHHTTKSFSRTPGK
light: MVLQTQVFISLLLWISGAYGDIALTQPASVSGSPGQSITISCTGTSSDVGSYNYVNWYQQHPGKAPKLMIYGVSKRPSGVSNRFSGSKSGNTASLTISGLQAEDEADYYCGTFAGGSYYGVFGGGTKLTVLGQPKSTPTLTVFPPSSEELKENKATLVCLISNFSPSGVTVAWKANGTPITQGVDTSNPTKEGNKFMASSFLHLTSDQWRSHNSFTCQVTHEGDTVEKSLSPAECL
FSH production [12]: significant decreases in FSH production
hepatic Ahsg expression [13]: reduced Ahsg expression
hepatic Fgf21 expression [13]: reduced
hepatic Inhbe expression [13]: significantly decreased Inhbe expression
Mss51 gene expression in gastrocnemius muscle ([13]; 3 weeks): reduced Mss51 gene expression
fat mass and lean mass (EchoMRI) ([13]; 3 weeks s.c., P75, P1229 25 mg/kg twice weekly, P1373 5, 20, 50 mg/kg twice weekly, P1307 20 mg/kg weekly): promoted lean mass gain but less fat loss
Body weight (% change from baseline) (DIO mice; DIO mice, 21 days s.c., P1307 20 mg/kg weekly, P1229 40 mg/kg twice weekly, semaglutide 40 μg/kg daily, tirzepatide 45 μg/kg daily, alone or combined): +5.4%
visceral, epididymal, pericardial, peri-renal, and retroperitoneal white adipose tissue weights (DIO mice; DIO mice, D21): not significantly affected
gastrocnemius and tibialis anterior weights (DIO mice; DIO mice, D21, P1229 with or without caloric restriction): significantly increased
Fat mass (% change from baseline) (DIO mice; as E44, NMR): −5.7%
Lean mass (% change from baseline) (DIO mice; as E44, NMR): +12.3%
Lean mass/fat mass ratio (DIO mice; as E44, NMR): 1.4
